Patent US8624002B2, “Prostaglandin E2 binding proteins and uses thereof” (AbbVie, Inc., priority 2008, dated 2014)

B1: L11: human anti-PGE2 antibody from PROfusion mRNA display; VH SEQ ID NO 25, VL SEQ ID NO 29 (antibody, V domains shown)
VH: EVQLVQSGPELKKPGTSVKVSCKASGYTLTTYAMNWVRQAPGQGLEWMGWIDTSTGNPTYAPGFLGRFVFSLDTSLSTTYLQISSLKPDDTAVYYCARSSHTRPGDFWGQGTLVTVSS
VL: QSGLTQPPSVSGTPGQRVTISCSGSESNVGTNSVNWYQQLPGAAPRLLIRGNSDRPSGVPDRFSASKSGTSASLAISRLQSEDEADYFCGACDGRLSGLYVFGTGTKVTVL
B2: K3A: human anti-PGE2 antibody from PROfusion mRNA display; VH SEQ ID NO 13, VL SEQ ID NO 17 (antibody, V domains shown)
VH: EVQLVQSGAETKKPGASVEVSCKASGYSFTEYGISWVRQAPGQGPEWMGCISPYNGKLHYAQEFQGRVTMTTGTSTNTAYMELGSLRSDDTAVYYCARGGFSFYDSSGYYYVTDHWGQGTLVTVSS
VL: DIRLTQSPSSLSASVGDRVTITCRASQSIGSYLNWYQQKSGKAPKLLIYAASKLQSGVPSRFSGSGFGTDFTLTISSLQPEDSATYYCQQSDTTPFTFGQGTKLEIKR
B3: L21: human anti-PGE2 antibody from PROfusion mRNA display; VH SEQ ID NO 33, VL SEQ ID NO 36 (antibody, V domains shown)
VH: EVQLVQSGSELKKPGTSVKVSCKASGYTLTTYAMNWVRQAPGQGLEWMGWIGTSTGNPTYAQGFTGRFVFSLDTSVNTAHLQIYSLKAEDTALYYCARSSLTRPADYWGQGTLVTVSS
VL: QSGLTQPPSVSGAPGQRVTISCFGSSSNIGAGYDVHWYQQLPGAAPKLLIFGNNNRPSGVPDRFSGSKSGTSASLAITGLQAEDEADYYCQSCDSSLSGAVFGTGTKVTVL
B4: K1B: human anti-PGE2 antibody from PROfusion mRNA display; VH SEQ ID NO 5, VL SEQ ID NO 9 (antibody, V domains shown)
VH: EVQLVQSGAEVKRPGASVKVSCKTSGYTFTNYDINWVRLAPGQGLEWMGCMNPTTGKTGYAQKFQGRVTMTRDTTIATAYMELSRLTSEDTAVYYCARGRGYSPGYGVAYADYWGQGTLVTVSS
VL: DIQLTQSPSSLPASVGDRVTITCRASQSISTYLNWYQQTPGKAPSLLIYAASSLQSGVPSRFSGSGSGTDFTLTISSLQPEDFATYYCQQSYSPPPTFGGGTKVEIKR
B5: K7H: human anti-PGE2 antibody from PROfusion mRNA display; VH SEQ ID NO 21, VL SEQ ID NO 24 (antibody, V domains shown)
VH: EVQLVQSGSELKKPGASVKVSCKASGYSFTEYGISWVRQAPGQGPEWMGCISPYNGKLHYAQKFLGRVTMTTDTSTNTAYMELRSLKSDDTAVYYCARGGFSSYDSSGYYYVTDHWGQGTLVTVSS
VL: DIRLTQSPSSLPASVGDRVTITCRASQSISTYLNWYQQTPGKAPSLLIYAASSLQSGVPSRFSGSGSGTDFTLTISSLQPEDFATYYCQQSYSPPPTFGGGTKVEIKR
B6: 2B5-7.0: recombinant anti-PGE2 antibody from solved 2B5 sequence; VH SEQ ID NO 40, VL SEQ ID NO 41 (antibody, V domains shown)
VH: QVQLQQSGPELVRPGSSVKISCKASGYTFTKYWLGWVKQRPGHGLEWIGDIYPGYDYTHYNEKFKDKATLTVDTSSSTAYMQLSSLTSEDSAVYFCARSDGSSTYWGQGTLVTVSA
VL: DVLMTQTPLSLPVSLGDQASISCTSSQNIVHSNGNTYLEWYLQRPGQSPKLLIYKVSNRFSGVPDRFSGSGSGTVFTLKISRVEAEDLGVYYCFQVSHVPYTFGGGTKLEIKR
B7: 2B5-9.0: recombinant anti-PGE2 antibody from solved 2B5 sequence; VH SEQ ID NO 44, VL SEQ ID NO 45 (antibody, V domains shown)
VH: QVQLQQSGPELVRPGSSVKISCKASGYTFTKYWLGWVKQRPGHGLEWIGDIYPYGDYTHYNEKFKDKATLTVDTSSSTAYMQLSSLTSEDSAVYFCARSDGSSTYWGQGTLVTVSA
VL: DVLMTQTPLSLPVSLGDQASISCTSSQNIVHSNGNTYLEWYLQRPGQSPKLLIYKVSNRFSGVPDRFSGSGSGTVFTLKISRVEAEDLGVYYCFQVSHVPYTFGGGTKLEIKR

Columns and labels:
[1] = Biotin-PGE2 ELISA (PGE2-biotinamide binding to captured IgG)
Method: Enzyme linked immunosorbent assays to screen for antibodies that bind prostaglandin E2 were performed according to at least one of the two following methods.
ELISA plates (Costar 3369, Corning, N.Y.) were coated with 50 μl of anti-host Fc IgG (Sigma, St. Louis, Mo.) at 2 μg/ml in PBS (Invitrogen Carlsbad, Calif.). Following an overnight incubation at 4° C., washed with PBS and the plate was blocked with 200 μl Superblock (Pierce #37535, Rockford, Ill.). The IgG containing samples were diluted to 1 μg/ml in Assay Buffer (10% Superblock in PBS containing 0.05% Surfactamps (Pierce #37535, Rockford, Ill.) and 50 μl/well added to each well and incubated for 1 hour at room temperature. Plates were washed four times with Tween-Tris Buffered Solution (TTBS). […] The titration curve samples were added to each IgG sample at 50 μl/well and incubated for 1 hour at room temperature. The plates were washed as previously described and 50 μl of 1:5000 dilution of streptavidin polyhrp40 (Fitzgerald Industries, Concord, Mass.) in Assay Buffer was added to each well and incubated for 45 minutes at room temperature. A final wash step was performed and the plates were developed using a single step TMB system (Sigma #T8665, St. Louis, Mo.) and 100 μl/well 2N H2SO4. Plates were read at 450 nm on a Molecular Devices Spectramax plate reader (Sunnyvale, Calif.). EC50 was determined using GraphPad Prism 5 (GraphPad Software, La Jolla, Calif.).

[2] = Biotin-PGE2 competition ELISA (prostaglandin selectivity); type: binding
Method: Competition enzyme linked immunosorbent assays were performed to determine prostaglandin binding specificity for antibodies that bind prostaglandin E2, according to at least one of the two following methods.
ELISA plates (Costar 3369, Corning, N.Y.) were coated with 50 μl/well of anti-host Fc IgG (Sigma, St. Louis, Mo.) at 2 μg/ml in PBS (Invitrogen, Carlsbad, Calif.). Following an overnight incubation at 4° C., the plate was blocked with 200 μl Superblock (Pierce #37535, Rockford, Ill.). The IgG samples were diluted to 6 μg/ml in Assay Buffer (10% Superblock in PBS containing 0.05% Surfactamps (Pierce #37535, Rockford, Ill.). The PGE2-biotinamide was diluted to 3 nM in Assay Buffer. A titration curve in Assay Buffer was prepared for the prostaglandins PGA2 (Cayman Chemicals, Ann Arbor, Mich.), PGD2 (Cayman Chemicals, Ann Arbor, Mich.) and PGE2 (Cayman Chemicals, Ann Arbor, Mich.) starting at 300 nM by a 1:10 serial dilution. The reagents were added to tubes at a volume of 50 μl each/tube and preincubated for 1 hour at room temperature. Following the preincubation, the mix was transferred to the blocked plates and allowed to incubate for 1 hour at room temperature. Next, the plates were washed four times with Tween 20-Tris buffered solution (TTBS). Streptavidin polyhrp40 in Assay Buffer (Fitzgerald Industries, Concord, Mass.) at a 1:5000 dilution was then added to the wells and incubated for 45 minutes at room temperature. A final wash step was performed and the plates were developed using a single step TMB system (Sigma #T8665, Sigma, St. Louis, Mo.) and 100 μl/well 2N H2SO4. Plates were read at 450 nm on a Molecular Devices Spectramax plate reader (Sunnyvale, Calif.). […] IC50 number was determined using GraphPad Prism 5 (GraphPad Software, La Jolla, Calif.). The cross reactivity index was then calculated by IC50 of PGE2/IC50 of other prostaglandin(s).

[3] = Biotin-PGE2 45 μM, IgG-containing COS7 media

Molecule	Binding to PGE2-Biotinamide (OD450) ([1]; Biotin-PGE2 0 μM)	Binding to PGE2-Biotinamide (OD450) ([1]; Biotin-PGE2 0.1 μM)	Binding to PGE2-Biotinamide (OD450) ([1]; Biotin-PGE2 0.3 μM)	Binding to PGE2-Biotinamide (OD450) ([1]; Biotin-PGE2 1 μM)	Binding to PGE2-Biotinamide (OD450) ([1]; Biotin-PGE2 2 μM)	Binding to PGE2-Biotinamide (OD450) ([1]; Biotin-PGE2 5 μM)	Binding to PGE2-Biotinamide (OD450) ([1]; Biotin-PGE2 15 μM)	Binding to PGE2-Biotinamide (OD450) [1, 3]	EC50 [1] [nM]	ability to bind PGE2 in ELISA [1]	PG Selectivity in Biotin-PGE2 Competition ELISA (CRI %) PGA2 [2] [%]	PG Selectivity in Biotin-PGE2 Competition ELISA (CRI %) PGD2 [2] [%]	PG Selectivity in Biotin-PGE2 Competition ELISA (CRI %) PGE1 [2] [%]
B1	0.04	0.04	0.04	0.05	0.07	0.07	0.07	0.07					
B2	0.11	0.22	0.34	0.51	0.61	0.67	0.78	0.58					
B3	0.08	0.10	0.16	0.25	0.32	0.31	0.41	0.46					
B4	0.07	0.13	0.21	0.29	0.27	0.67	0.82	0.88					
B5	0.04	0.03	0.04	0.06	0.10	0.13	0.29	0.24					
B6									2.46	potently bound to PGE2	0.11	<0.01	27
B7									3.04	potently bound to PGE2	0.24	<0.01	23
